Results taken from the supplement of paper PMC7125110.
± gives the standard error. Fewer inactive variants are shown than the library holds.

B1: glmS ribozyme (parent)
chain: AUAAAAGCGCCAGAACUACAGAAAUGUAGUUGACGAGGAGGAGGUUUAUCGAAUUUUCGGCGGAUGCCUCCAAA

How the values were obtained:
Conditions in all cases: with glucosamine-6-phosphate
[1] = variants of: B1; experiment: self-cleavage kobs at 640 uM GlcN6P; higher = faster cleavage; RNA array
How it was run: (§1)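 In situ transcription by E. coli RNA polymerase produced barcoded ribozyme variants on sequenced MiSeq chips, and a hybridised Cy3 probe tracked them at 37 °C. Glucosamine-6-phosphate was flowed in at 40 μM to 10 mM in HEPES/KCl/Mg(OAc)2 buffer. kcat and KM were taken from weighted Michaelis–Menten fits of kobs values from exponential decay fits.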

[2] = variants of: B1; experiment: self-cleavage kobs at 2500 uM GlcN6P; higher = faster cleavage; RNA array
How it was run: as §1

[3] = variants of: B1; experiment: self-cleavage kobs at 10000 uM GlcN6P; higher = faster cleavage; RNA array
How it was run: as §1

Variant | self-cleavage kobs at 640 uM GlcN6P [1] | self-cleavage kobs at 2500 uM GlcN6P [2] | self-cleavage kobs at 10000 uM GlcN6P [3]
AUAAAAGCACAAGGACUACAGAAAUGUAGUUGAGUUGGAGGAGGUUUUUCGAAUCUUCGGCGGAUGGCCCCAAA [G9A C11A A14G C34G G35U A36U A48U U55C C67G U69C] | < 1e-05 s⁻¹ | – | –
AUAAAAGUGCCAGAACUACAGAAAUGUAGAUGACGAGGUGGAGGUUUAUCGAAUUUUCGGCGGAUGCCUCCAAA [C8U U30A A39U] | < 1e-05 s⁻¹ | < 1e-05 s⁻¹ | –
AUAAAAGUUCCAGACCUACAGAAAUGUAGUUGACGAGGAGGAGUUUUAUCGAAUUUUCGGCGGAUGCCUCCAAA [C8U G9U A15C G44U] | < 1e-05 s⁻¹ | < 1e-05 s⁻¹ | –
AUAAAAGCACCAGAACUACAGAAAUGUAGUUGACGAGGAGGCGAUUUAUCGAAUUUUCGGCGGAUGCCUCCAAA [G9A A42C G44A] | < 1e-05 s⁻¹ | < 1e-05 s⁻¹ | –
AUAAAAGUGCCAGAACUACAGAAAUGUAGUGGAUGAGGAGGAGGUUAAUCGAAUUUUCGGCGGAUGCCUCCAAA [C8U U31G C34U U47A] | < 1e-05 s⁻¹ | – | –
AUAAAAGUGCCAGAACUACAGAAAUGUAGUUGACGAGGAGGAGGUGUAUCGAAUUUUCGGAGGAUGCUUCCAAA [C8U U46G C61A C68U] | < 1e-05 s⁻¹ | – | –
AUAAAAGUGCCAGAACUACAGAAAUGUAGUUGACGAGGAGGAGGUUUAUGUAAUUCUCGGCGGAUGCCUCCAAA [C8U C50G G51U U56C] | < 1e-05 s⁻¹ | – | –
AUAAAAGUGCCAGAACUACAGAAAUGUAGUUGACGAGGACGAGGUUUAUCGAAUUUUCGGCGGAUGCCUCUAAA [C8U G40C C71U] | < 1e-05 s⁻¹ | < 1e-05 s⁻¹ | –
AUAAAAGUGCCAGAACUACAGAAAUGUAGUUUACGAGGAGGAGGUUUAUCGAAUUUUCGGCGGAUGCAUCCAAA [C8U G32U C68A] | < 1e-05 s⁻¹ | – | –
AUAAAAGUGCCAGAACUACAGAAAUGUAGUUGACGAUGAGGAGGUUUAUCGAAUUUUCGGCGGAUGCCUCGAAA [C8U G37U C71G] | 0.000584 ± 0.00027 s⁻¹ | – | –
AUAAAAGCAACACAACUACAGAAAUGUACUUGACGAGGAGGAGGUUUAUCGAAUUUUCGGCGGAUGCCUCCAAA [G9A C10A G13C G29C] | < 1e-05 s⁻¹ | < 1e-05 s⁻¹ | –
AUAAAAGUGCCAGAACUACAGAAAUGUAGUUGACGAGGAGGAGGUUUAACGAAUUUUCGGCGGAUGCCGCCAAA [C8U U49A U69G] | 0.000871 ± 0.00023 s⁻¹ | 0.000796 ± 0.00037 s⁻¹ | –
AUAAAAGUUCCAGAACUACAGAAAUGUAGUUGACGAGGAGGAGGUUUAUCGAAUUUUCGGCGGAUGCAUCCAAA [C8U G9U C68A] | < 1e-05 s⁻¹ | < 1e-05 s⁻¹ | –
AUAAAAGUGCCAGAACUACAGAAAUGUAGUUGACGAGGAGGAGGUUUAUCGAAUUUUUGGCGGAUGCCUCCAAA [C8U C58U] | < 1e-05 s⁻¹ | – | –
AUAAAAGUGCCAGAACUACAGAAAUGUAGUUGAGGAGGGGGAGUUUUAUCGAAUUUUCGGCGGAUGCCUCCAAA [C8U C34G A39G G44U] | < 1e-05 s⁻¹ | – | –
AUAAAAGCACCUGAACUACAGAAAUGUAGUUGACGAGGAGGAGGUUUAACGAAUUUUCGGCGGAUGCCUCCAAA [G9A A12U U49A] | < 1e-05 s⁻¹ | < 1e-05 s⁻¹ | –
AUAAAAGUGCCAGAACUACAGAAAUGUAAUUGACGAAGUGGAGGUUUAUCGAAUUUUCGGUGGCUGCCUCCAAA [C8U G29A G37A A39U C61U A64C] | < 1e-05 s⁻¹ | – | –
AUAAAAGCACCAGAUAUACAGAAAUGUAGUUGACGAGGAGGAGGUUUAUCGAAUUUUCGGCGCAUGCUUCCAAA [G9A A15U C16A G63C C68U] | < 1e-05 s⁻¹ | – | –
AUAAAAGCACCAGAACUACAGAAAUGUAGUUGACGAGGAGGAGGUUUUUAGAAUUUUCGGCGGAUGCCUCCAAA [G9A A48U C50A] | < 1e-05 s⁻¹ | – | –
AUAAAAGCACCAGAACUACAGAAAUGUAAUUGACGAGGAGGAGGUUUAUCGAAUUUUCGGCGUAUGCCUCCAAA [G9A G29A G63U] | < 1e-05 s⁻¹ | < 1e-05 s⁻¹ | –
AUAAAAGUGCCAGAACUACAGAAAUGUAGACGACGAGGAGGAGGUUUUUCGAAUUUUCGGCGGAUGCUUCCAAA [C8U U30A U31C A48U C68U] | < 1e-05 s⁻¹ | < 1e-05 s⁻¹ | –
AUAAAAGUGCCAGAACUACAGAAAUGUAGUGGACUAGGAGGAGAUUUAUCGAAUUUUCGGCGGAUGCCUUCAAA [C8U U31G G35U G44A C70U] | < 1e-05 s⁻¹ | < 1e-05 s⁻¹ | –
AUAAAAGUGCCAGAACUACAGAAAUGUAAUAGACGAUGAGGAGGUUUAUCGGAUUUUCGGCGGAUGCCUCGAAA [C8U G29A U31A G37U A52G C71G] | 0.0078 ± 0.0033 s⁻¹ | – | –
AUAAAAGCACCAGGACUACAGAAAUGUAGUUGACGAGUAGGAGGUUUAUCGAAUUUUCGGCGGAUGCCUCCAAA [G9A A14G G38U] | < 1e-05 s⁻¹ | – | < 1e-05 s⁻¹
AUAAAAGCAGCAGAACUACAGAAAUGUAGUUGACGAGGAGGAGAUUUAUCGAAUUUUCGGCGGAUGCCUUCAAA [G9A C10G G44A C70U] | < 1e-05 s⁻¹ | < 1e-05 s⁻¹ | –
